Data on ten molecules can be found in patent US20150031754, “APTAMER MODULATORS OF ESTROGEN RECEPTORS” (RESEARCH FOUNDATION OF STATE UNIVERSITY OF NEW YORK AT …, published 2015).

One data set has as its target T1, SNAP-tag (control) (UniProt P16455).
T1 sequence: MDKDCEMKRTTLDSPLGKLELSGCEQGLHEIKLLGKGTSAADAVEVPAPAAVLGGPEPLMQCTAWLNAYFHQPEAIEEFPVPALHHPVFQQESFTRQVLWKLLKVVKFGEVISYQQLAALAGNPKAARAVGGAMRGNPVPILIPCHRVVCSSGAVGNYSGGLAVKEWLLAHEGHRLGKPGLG
In words: pulldown. The settings on record: SNAP-tag control background.

The target of data set [1] is T2, Human estrogen receptor alpha (hERα), full-length, unliganded (Homo sapiens, UniProt P03372 P03372:1-595). In words: filter; same buffer, 37 C; Hill n>1. As to conditions: tags: none stated; baculovirus/insect cells; Invitrogen P2187 or EMD4 Biosciences 330655; label: 32P-CTP internal. The procedure:
The dissociation constant (Kd) of the AptER-1, -2, -3, and -4 were measured using a nitrocellulose filter binding assay. A constant trace amount of [γ-³²P]-CTP incorporated RNA aptamer (˜0.1 nM) was titrated with increasing amounts of the target protein ranging from 5 to 150 nM. The binding activity at each concentration was determined as % binding, by calculating the radioactive signal of the RNA-protein complex retained on the filter as a percentage of the signal at the highest protein concentration (saturated) used. The assays were performed in triplicates for each aptamer. A binding curve was constructed using Sigma Plot 9.0.1, with average binding affinity (% binding) as a function of the protein concentration using a sigmoidal equation (Hill equation, 3 parameters). Apparent Kd was the protein concentration where half of the maximal binding activity was achieved, and were calculated from the data points by using Sigma Plot. […] The first 3 aptamers were isolated in in vitro selection I, and their affinity rank explains the relative abundance in the final selected library. More specifically, it is believed that AptER-1 dominated the final selected pool because it was the strongest binder. AptER-4 was the weakest binder, and would not have been easily identified in the selection I libraries.

Data set [2] addresses Human estrogen receptor beta (hERβ) (Homo sapiens, UniProt Q92731 Q92731:1-530). In words: EMSA; affinity similar to hERα. The settings on record: tags: none stated; baculovirus/insect cells; EMD4 Biosciences 330657; label: 32P-CTP internal. The procedure:
FIGS. 9A-B illustrate the binding specificity of AptER-1, -2 and -3. […] Radiolabeled AptER-1, -2 and -3 (0.1 nM) were incubated with 20 nM hERα, 200 nM hERβ, or 200 μg/ml HeLa nuclear extract (NE). Binding reactions were resolved on a 4.8% polyacrylamide gel (acrylamide:bis-acrylamide=37.5:1) in ¼×TBE buffer. […] Radiolabeled AptER-1, -2 and -3 (0.1 nM) were incubated with 20 nM or 40 nM hERα, or hERβ. Binding reactions were resolved as described above.
To examine the binding specificity of the first set of isolated aptamers, AptER-1, -2 and -3, proteins were presented at high concentrations in ESMA, including hERβ at 200 nM or HeLa nuclear extract at 200 μg/ml, which should allow detection of weak binding activity. […] This was confirmed in a second EMSA using the two ER subtypes at the same concentrations (FIG. 9B). Furthermore, the binding affinities to the two forms were very close, as shown in the EMSA, and this was more carefully compared with the binding curves of AptER-1 (FIG. 8A). […] In the presence of HeLa nuclear extract (FIG. 9A), no specific shifted band could be observed.
(Mobility shift assays separate free from complexed probe on a gel.)

For data set [3], the target named is T2, Human estrogen receptor alpha (hERα), …. In words: EMSA; 200 nM ERα; two shifted bands. As to conditions: tags: none stated; baculovirus/insect cells; Invitrogen P2187 or EMD4 Biosciences 330655; label: labeled.
Data set [4] has the same target. In words: EMSA; 35 nM hERα; fully active. As to conditions: tags: none stated; baculovirus/insect cells; Invitrogen P2187 or EMD4 Biosciences 330655; label: 32P internal; stem-loop.
Data set [5] shares this target. In words: EMSA; no binding; method EMSA or filter. As to conditions: tags: none stated; baculovirus/insect cells; Invitrogen P2187 or EMD4 Biosciences 330655.
Data set [6] has the same target. In words: EMSA; 200 nM ERα; one complex; BSA and yeast RNA competitors. The settings on record: tags: none stated; baculovirus/insect cells; Invitrogen P2187 or EMD4 Biosciences 330655; label: labeled.
The target is the same in data set [7]. In words: EMSA; 25 nM hERα; no difference from sB63. The settings on record: tags: none stated; baculovirus/insect cells; Invitrogen P2187 or EMD4 Biosciences 330655; label: 32P internal.

T2 sequence (P03372 whole entry, one chain of several): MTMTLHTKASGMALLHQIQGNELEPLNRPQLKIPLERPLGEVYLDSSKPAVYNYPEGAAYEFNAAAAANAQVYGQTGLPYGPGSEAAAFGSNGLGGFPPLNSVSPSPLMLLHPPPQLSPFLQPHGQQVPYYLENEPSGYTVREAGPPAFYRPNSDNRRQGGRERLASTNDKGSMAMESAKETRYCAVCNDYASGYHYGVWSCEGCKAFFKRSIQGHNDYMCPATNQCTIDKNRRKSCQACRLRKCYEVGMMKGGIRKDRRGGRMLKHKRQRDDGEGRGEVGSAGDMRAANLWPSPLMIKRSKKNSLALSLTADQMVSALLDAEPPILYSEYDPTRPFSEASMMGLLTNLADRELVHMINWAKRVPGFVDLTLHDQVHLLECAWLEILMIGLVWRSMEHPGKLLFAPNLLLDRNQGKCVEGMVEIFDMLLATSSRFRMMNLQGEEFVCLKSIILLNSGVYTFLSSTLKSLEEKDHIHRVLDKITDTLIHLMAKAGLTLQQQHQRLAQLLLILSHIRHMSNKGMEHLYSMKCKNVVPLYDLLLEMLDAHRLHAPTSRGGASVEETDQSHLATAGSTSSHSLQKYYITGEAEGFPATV
Chain of Human estrogen receptor beta (hERβ) (Q92731 whole entry, one chain of several): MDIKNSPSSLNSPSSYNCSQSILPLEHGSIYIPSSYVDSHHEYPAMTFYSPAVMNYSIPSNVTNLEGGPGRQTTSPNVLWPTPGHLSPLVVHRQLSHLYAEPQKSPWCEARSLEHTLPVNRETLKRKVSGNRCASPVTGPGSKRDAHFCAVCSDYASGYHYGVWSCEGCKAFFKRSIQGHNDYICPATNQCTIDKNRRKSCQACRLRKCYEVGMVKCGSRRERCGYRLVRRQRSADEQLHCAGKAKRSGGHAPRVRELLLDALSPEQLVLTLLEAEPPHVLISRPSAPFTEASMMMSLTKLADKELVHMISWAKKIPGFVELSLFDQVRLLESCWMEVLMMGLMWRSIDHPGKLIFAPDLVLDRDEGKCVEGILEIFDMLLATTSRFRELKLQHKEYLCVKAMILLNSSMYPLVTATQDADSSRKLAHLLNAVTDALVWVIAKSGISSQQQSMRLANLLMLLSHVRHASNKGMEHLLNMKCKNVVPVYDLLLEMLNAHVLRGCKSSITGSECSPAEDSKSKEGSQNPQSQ

Take “GCGUGACGGGCACCGCGAACAAAACGCAAGACAGAGUGCCGACAAGAGCACUACAAGCCCGUCCAUACUCCGGCACCGCGAACAAAACGCAAGACAGAGUGCCGACAAGAGCACUAACAGCCGGAGGCGCUU [AptER-1x2 (expressed dimer)]”: the binding signal (fold (control reference)) in the data set with SNAP-tag (control) worked out at 1.

B1: AptER-3 (ssRNA)
RNA: GGGAGAAUUCAACUGCCAUCUAGGCGACCCAGGGCCGGGACGCAAAGCAGCCAAAACAGACGGCCCCAGUCAGGGAGUUACUACAAGCUUCUGGACUCGGU
One may read the Kd as the concentration at which binding is half-saturated. As to B1, in data set [1], the Kd is 0.03 µM. Moreover, in data set [2], the binding result is “binds”.

B2: ERL5-4 (ssRNA)
RNA: GGGAGAAUUCAACUGCCAUCUAACAGCCAAGUAAGCGACAACGACAAUCAAUGACGCGAACAAUCCGAAAGAACUACAAGCUUCUGGACUCGGU
B2: in data set [3], the binding result is listed as “binds”.

B3: ERL5-5 (ssRNA)
RNA: GGGAGAAUUCAACUGCCAUCUACAGAAGGACCGCGAGGGUAAAAACCACGCACGACAGAGUAUAACAAAACAACUACAAGCUUCUGGACUCGGU
Consider B3, for which the binding result in data set [3] is reported as “binds”.

B4: AptER-1(53nt) (ssRNA)
RNA: GGGCACCGCGAACAAAACGCAAGACAGAGUGCCGACAAGAGCACUACAAGCCC
Take B4: the binding result in data set [4] is on record as “binds”.

B5: AptER-1 34nt version (ssRNA)
RNA: GGGCACCGCGAACAAAACGCAAGACAGAGUGCCC
With B5, the binding result in data set [5] is on record as “no binding”.

B6: ERL5-1 (ssRNA)
RNA: GGGAGAAUUCAACUGCCAUCUACAAGCCAAGCAAGCGAGCAAAAAACGCGAGCAUCCGAGCUCCAAGACGUACUACAAGCUUCUGGACUCGGU
B6: in data set [6], the binding result is listed as “binds”.

B7: AptER-2 (ssRNA)
RNA: GGGAGAAUUCAACUGCCAUCUAGGCACACGCGAGAUAGAGCGAGGCCUCCAAAAAUGGCCACGCCAGGAAGCAAGUACUACAAGCUUCUGGACUCGGU
With B7, the affinity in data set [1], expressed as Kd, was 0.021 µM. The binding result in data set [2] was “binds”.

B8: sB65 (65nt truncated clone B65) (ssRNA)
RNA: GGGCAGAAGCACCGCGAACAAAACGCAAGACAGAGUGCCGACAAGAGCACUACAAGCUUCUGCCC
Take B8: the binding result in data set [7] is given as “binds”.

B9: ERL5-6 (ssRNA)
RNA: GGGAGAAUUCAACUGCCAUCUAAAUGAAAGGACGCACACUACGUGUCCUACAAACACAGAAACAAAAACCGAACUACAAGCUUCUGGACUCGGU
For B9, the binding result in data set [3] is on record as “binds”.
